To fix the notation:
B1: ZNF8 (parent)
chain: RTHTGEKPYTCSVCGKSFSRTTCL

The text below walks through data of the supplement of paper PMC10567573.
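Further: lentivirally expressed fusions sorted by FACS into six bins by GFP to DsRed ratio, PSI derived from sequencing read proportions per bin multiplied by bin number.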

In this data set the parent is B1. Briefly: protein stability index of a GFP-peptide fusion (GPS, HEK-293T) (PSI 1-6); higher = more stable. The following applies: c terminus: a fixed tail appended.
Consider RTHTGEKPYTCSVCGKYFSRTTCL [S17Y], for which the protein stability index came out at 2.14.

With RTHTGEKPYTCSVCGKQFSRTTCL [S17Q], the protein stability index worked out at 2.58.

With RTHTGEKPYTCSVCGKFFSRTTCL [S17F], the protein stability index is 1.48.

With RTHTGEKPYTCSVCGKDFSRTTCL [S17D], the protein stability index came to 2.55.

As to RTHTGEKPYTCSVCGKKFSRTTCL [S17K], the protein stability index amounted to 2.87.

Regarding RTHTGEKPYTCSVCGKEFSRTTCL [S17E], the protein stability index was 2.4.

For the variant RTHTGEKPYTCSVCGKCFSRTTCL [S17C], the protein stability index worked out at 3.72.

In the case of RTHTGEKPYTCSVCGKHFSRTTCL [S17H], the protein stability index came to 2.69.

Consider RTHTGEKPYTCSVCGKGFSRTTCL [S17G], for which the protein stability index came out at 1.73.

Turning to RTHTGEKPYTCSVCGKPFSRTTCL [S17P], the protein stability index is 3.07.

In the case of RTHTGEKPYTCSVCGKWFSRTTCL [S17W], the protein stability index is 1.82.

Take RTHTGEKPYTCSVCGKRFSRTTCL [S17R]: the protein stability index amounted to 2.77.

In the case of RTHTGEKPYTCSVCGKAFSRTTCL [S17A], the protein stability index was 2.48.

Turning to RTHTGEKPYTCSVCGKLFSRTTCL [S17L], the protein stability index was found to be 2.34.

As to RTHTGEKPYTCSVCGKIFSRTTCL [S17I], the protein stability index was determined as 2.17.

RTHTGEKPYTCSVCGKVFSRTTCL [S17V]: the protein stability index was determined as 2.67.

Take RTHTGEKPYTCSVCGKNFSRTTCL [S17N]: the protein stability index stood at 2.36.

For RTHTGEKPYTCSVCGKMFSRTTCL [S17M], the protein stability index stood at 2.03.

For RTHTGEKPYHCSVCGKSFSRTTCL [T10H], the protein stability index stood at 2.75.

For RTHTGEKPYSCSVCGKSFSRTTCL [T10S], the protein stability index is 2.36.

Consider RTHTGEKPYKCSVCGKSFSRTTCL [T10K], for which the protein stability index came out at 2.15.

RTHTGEKPYVCSVCGKSFSRTTCL [T10V]: the protein stability index stood at 2.72.

As for RTHTGEKPYCCSVCGKSFSRTTCL [T10C], the protein stability index is 2.83.

For RTHTGEKPYYCSVCGKSFSRTTCL [T10Y], the protein stability index stood at 1.98.

In the case of RTHTGEKPYFCSVCGKSFSRTTCL [T10F], the protein stability index is 1.89.

As for RTHTGEKPYWCSVCGKSFSRTTCL [T10W], the protein stability index came out at 1.75.

For RTHTGEKPYECSVCGKSFSRTTCL [T10E], the protein stability index is 2.39.

On to RTHTGEKPYACSVCGKSFSRTTCL [T10A], for which the protein stability index amounted to 2.06.

With RTHTGEKPYQCSVCGKSFSRTTCL [T10Q], the protein stability index came out at 2.6.

As to RTHTGEKPYNCSVCGKSFSRTTCL [T10N], the protein stability index is 2.2.

As to RTHTGEKPYRCSVCGKSFSRTTCL [T10R], the protein stability index was 2.51.

In the case of RTHTGEKPYGCSVCGKSFSRTTCL [T10G], the protein stability index turned out to be 2.21.

Regarding RTHTGEKPYPCSVCGKSFSRTTCL [T10P], the protein stability index was determined as 2.27.

As for RTHTGEKPYLCSVCGKSFSRTTCL [T10L], the protein stability index was found to be 2.05.

As for RTHTGEKPYMCSVCGKSFSRTTCL [T10M], the protein stability index is 2.19.

For the variant RTHTGEKPYDCSVCGKSFSRTTCL [T10D], the protein stability index came out at 2.43.

Regarding RTHTGEKPYICSVCGKSFSRTTCL [T10I], the protein stability index is 2.65.

In the case of RTHTGEKPYTCSTCGKSFSRTTCL [V13T], the protein stability index worked out at 1.89.

On to RTHTGEKPYTCSPCGKSFSRTTCL [V13P], for which the protein stability index worked out at 1.97.

As for RTHTGEKPYTCSICGKSFSRTTCL [V13I], the protein stability index turned out to be 2.09.

Consider RTHTGEKPYTCSDCGKSFSRTTCL [V13D], for which the protein stability index is 2.46.

RTHTGEKPYTCSCCGKSFSRTTCL [V13C]: the protein stability index came out at 3.54.

As for RTHTGEKPYTCSRCGKSFSRTTCL [V13R], the protein stability index is 1.99.

As to RTHTGEKPYTCSECGKSFSRTTCL [V13E], the protein stability index worked out at 2.47.

Turning to RTHTGEKPYTCSSCGKSFSRTTCL [V13S], the protein stability index turned out to be 2.56.

In the case of RTHTGEKPYTCSNCGKSFSRTTCL [V13N], the protein stability index amounted to 2.26.

With RTHTGEKPYTCSFCGKSFSRTTCL [V13F], the protein stability index was 2.48.

As for RTHTGEKPYTCSGCGKSFSRTTCL [V13G], the protein stability index stood at 2.

Take RTHTGEKPYTCSKCGKSFSRTTCL [V13K]: the protein stability index is 2.61.

As to RTHTGEKPYTCSACGKSFSRTTCL [V13A], the protein stability index stood at 2.26.

RTHTGEKPYTCSYCGKSFSRTTCL [V13Y]: the protein stability index came out at 2.43.

RTHTGEKPYTCSMCGKSFSRTTCL [V13M]: the protein stability index turned out to be 2.14.

RTHTGEKPYTCSQCGKSFSRTTCL [V13Q]: the protein stability index is 1.28.

In the case of RTHTGEKPYTCSWCGKSFSRTTCL [V13W], the protein stability index stood at 1.65.

Regarding RTHTGEKPYTCSLCGKSFSRTTCL [V13L], the protein stability index came out at 2.23.

RTHTGEKPYTCSHCGKSFSRTTCL [V13H]: the protein stability index stood at 2.61.

For the variant RTHTGEKPYTCKVCGKSFSRTTCL [S12K], the protein stability index is 2.13.

On to RTHTGEKPYTCGVCGKSFSRTTCL [S12G], for which the protein stability index was determined as 2.02.

As to RTHTGEKPYTCWVCGKSFSRTTCL [S12W], the protein stability index is 2.17.

For RTHTGEKPYTCYVCGKSFSRTTCL [S12Y], the protein stability index stood at 2.27.

Regarding RTHTGEKPYTCVVCGKSFSRTTCL [S12V], the protein stability index worked out at 2.21.

For the variant RTHTGEKPYTCLVCGKSFSRTTCL [S12L], the protein stability index was 2.22.

In the case of RTHTGEKPYTCDVCGKSFSRTTCL [S12D], the protein stability index is 2.59.

With RTHTGEKPYTCMVCGKSFSRTTCL [S12M], the protein stability index was determined as 2.34.

Consider RTHTGEKPYTCNVCGKSFSRTTCL [S12N], for which the protein stability index came to 2.24.

For RTHTGEKPYTCFVCGKSFSRTTCL [S12F], the protein stability index came out at 2.05.

RTHTGEKPYTCIVCGKSFSRTTCL [S12I]: the protein stability index came out at 2.11.

Consider RTHTGEKPYTCTVCGKSFSRTTCL [S12T], for which the protein stability index worked out at 2.52.

For RTHTGEKPYTCQVCGKSFSRTTCL [S12Q], the protein stability index came to 2.33.

For RTHTGEKPYTCPVCGKSFSRTTCL [S12P], the protein stability index came to 2.7.

In the case of RTHTGEKPYTCRVCGKSFSRTTCL [S12R], the protein stability index turned out to be 2.21.

Consider RTHTGEKPYTCAVCGKSFSRTTCL [S12A], for which the protein stability index was determined as 2.96.

Turning to RTHTGEKPYTCEVCGKSFSRTTCL [S12E], the protein stability index is 2.72.

With RTHTGEKPYTCHVCGKSFSRTTCL [S12H], the protein stability index amounted to 2.41.

For the variant RTHTGEKPYTCCVCGKSFSRTTCL [S12C], the protein stability index was determined as 2.13.

Consider RTHTGEKPHTCSVCGKSFSRTTCL [Y9H], for which the protein stability index amounted to 2.11.

Consider RTHTGEKPKTCSVCGKSFSRTTCL [Y9K], for which the protein stability index is 2.08.

RTHTGEKPWTCSVCGKSFSRTTCL [Y9W]: the protein stability index came to 2.42.

Turning to RTHTGEKPRTCSVCGKSFSRTTCL [Y9R], the protein stability index is 2.29.

For RTHTGEKPCTCSVCGKSFSRTTCL [Y9C], the protein stability index worked out at 3.77.

As for RTHTGEKPQTCSVCGKSFSRTTCL [Y9Q], the protein stability index is 2.31.

As to RTHTGEKPVTCSVCGKSFSRTTCL [Y9V], the protein stability index came out at 2.65.

On to RTHTGEKPNTCSVCGKSFSRTTCL [Y9N], for which the protein stability index stood at 2.51.

Turning to RTHTGEKPGTCSVCGKSFSRTTCL [Y9G], the protein stability index was found to be 2.5.

For the variant RTHTGEKPLTCSVCGKSFSRTTCL [Y9L], the protein stability index was found to be 2.39.

RTHTGEKPTTCSVCGKSFSRTTCL [Y9T]: the protein stability index was found to be 2.59.

As for RTHTGEKPFTCSVCGKSFSRTTCL [Y9F], the protein stability index was 2.32.

RTHTGEKPPTCSVCGKSFSRTTCL [Y9P]: the protein stability index is 2.4.

Turning to RTHTGEKPSTCSVCGKSFSRTTCL [Y9S], the protein stability index worked out at 2.62.

For the variant RTHTGEKPETCSVCGKSFSRTTCL [Y9E], the protein stability index turned out to be 2.95.

On to RTHTGEKPMTCSVCGKSFSRTTCL [Y9M], for which the protein stability index was 2.23.

For RTHTGEKPATCSVCGKSFSRTTCL [Y9A], the protein stability index came to 2.3.

Take RTHTGEKPDTCSVCGKSFSRTTCL [Y9D]: the protein stability index came out at 2.78.

As to RTHTGEKPITCSVCGKSFSRTTCL [Y9I], the protein stability index is 2.59.
